Test results published in US20250270343A1 (Alector, published 2025).
Changes are numbered by the printed parent chain.

B1: anti-GPNMB antibody GPN-08 (antibody, human IgG1, V domains shown)
VH: QVQLQQPGAELVKPGASVKLSCRASGYTFTSYWLHWVKQRPGQGLEWIGEINPSDGRTNYIEKVKTKATLTVDKSSSTAYMQLSSLTSEDSAVYYCARSGGNYAWFAYWGQGTLVTVSA
VL: DIVMTQSHKFMSTSVGDRVSITCKASQDVSPSVAWYQQRPGQSPKLLIYSASYRYTGVPDRFTGSGSGTDFTFTISSVQAEDLAVYYCQQHYSIPLTFGAGTKLELK
notes: chimeric
B2: anti-GPNMB antibody GPN-03 (antibody, human IgG1, V domains shown)
VH: QVQLQQSGPELVKPGASVKLSCKASGYTFTNYYMYWVKQRPGQGLEWIGEINPRNGGTNFNEKFKSKATLTVDKSSSTAYMQLSSLTFEDSAVYYCTTGLAYWGQGTLVTVSA
VL: DVVMTQTPLSLPVSLGDQASISCRSSQSLVHSDGNTYLHWYLQKPGQSPKLLIYKVSTRFSGVPDRFSGSGSGTDFTLKISRVEAEDLGVYFCSQSTHVPWTFGGGTKLEIK
notes: chimeric
B3: anti-GPNMB antibody GPN-06 (antibody, human IgG1, V domains shown)
VH: B2 VH with P9A, P53T, F88S, L100F
VL: DIQMTQSPASLSASVGETVTITCRASENIYSYLVWYQQNQGKSPQLLVYNAKTLAEGVPSRFSGSGSGTQFSLKINSLQPEDFGTYYCQHHYGTPFTFGSGTKLEIK
notes: chimeric
B4: anti-GPNMB antibody GPN-30 (antibody, human IgG1, V domains shown)
VH: EVQLQQSGPELVNPGASVRISCKASGYSFTGYYMNWVKQSPEKSLEWIGEINPNTGFTTYNQNFKAKATLTVDKSSSTAYIQLKSLTSEDSAVYYCTRPSPSFDYWGQGTTLTVSS
VL: DIQMTQSPSSLSASLGERGSLTCRASQEISGHLSWLQQKPDGTIKRLIYAASTLDSGVPKRFSGSRSGSDYSLTISSLESEDFADYYCLQYASYPYTFGGGTKLEIK
notes: chimeric
B5: anti-GPNMB antibody GPN-07 (antibody, human IgG1, V domains shown)
VH: QVQLQQSGAEQVKPGASVKLSCKASGYTFTSYYMYWVKQRPGQGLEWIGEINPSNGGTYFNEKFKSKATLTVDKSSSTAYMHLSSLTSEDSAVYYCTRGGTYYAYWGQGTLVTVSA
VL: B4 VL with G19V, I29M
notes: chimeric
B6: anti-GPNMB antibody GPN-09 (antibody, human IgG1, V domains shown)
VH: B5 VH with Q11L, M34I, S66N, H82Q, T101N
VL: B4 VL with G19V, S34G, S52L
notes: chimeric
B7: anti-GPNMB antibody GPN-34 (antibody, human IgG1, V domains shown)
VH: EVKLVESGGGLVQPGRSLKLSCAASGFNFYDYWMGWVRQAPGKGLEWIGEINKDSRTINYTPFLKDRFTISRDNAQNTLYLQMSKLGSEDTAIYYCAREGRVPFDYWGQGVMVTVSS
VL: DIQMTQSPSSMSVSLGDTVTIPCRASQDVGSYVNWFQQKPGKSPRHMIYRATNLADGVPSRFSGSRSGADYSLTISSLESEDVADYHCQQYAEYPLTFGSGTKLEIK
notes: chimeric

molecular target: T1, mouse GPNMB endogenously expressed on B16F10 cells (mouse, UniProt Q99P91 23-574); experiment: FACS, B16F10 cells
T1 construct: whole, on cells; also called moGPNMB
T1 sequence (looked up): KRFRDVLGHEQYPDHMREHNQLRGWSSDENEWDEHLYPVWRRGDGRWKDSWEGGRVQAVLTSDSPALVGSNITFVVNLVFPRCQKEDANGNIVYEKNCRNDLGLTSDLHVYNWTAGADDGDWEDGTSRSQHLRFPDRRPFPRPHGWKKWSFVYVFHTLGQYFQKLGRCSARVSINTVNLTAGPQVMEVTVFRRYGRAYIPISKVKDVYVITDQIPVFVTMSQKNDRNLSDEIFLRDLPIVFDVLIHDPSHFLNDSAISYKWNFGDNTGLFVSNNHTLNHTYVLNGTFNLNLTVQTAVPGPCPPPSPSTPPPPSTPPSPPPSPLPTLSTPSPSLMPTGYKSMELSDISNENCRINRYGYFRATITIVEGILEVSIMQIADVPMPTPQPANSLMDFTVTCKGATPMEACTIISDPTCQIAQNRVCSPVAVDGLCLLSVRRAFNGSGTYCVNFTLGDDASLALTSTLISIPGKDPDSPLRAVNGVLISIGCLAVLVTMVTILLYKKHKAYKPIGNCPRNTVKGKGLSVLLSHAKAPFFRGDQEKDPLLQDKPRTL
Description: (§1) Recombinant anti-GPNMB antibodies of the present disclosure were examined for their ability to bind human and/or mouse GPNMB expressed on Freestyle293-huGPNMB+ or B16F10 cells, respectively. B16F10 cells are a murine melanoma cell line from a C57BL/6J mouse that endogenously express high levels of mouse GPNMB. The antibodies were also tested for their ability to bind to a human macrophage cell line (U937 cells) engineered to express human GPNMB. Cells were harvested, plated at 100,000 cells/well in a 96-well round bottom plate, and incubated in 100 μl FACS buffer (PBS containing 2% FBS, 2 mM EDTA) containing anti-GPNMB monoclonal antibodies of the present disclosure for 30 minutes on ice. Cells were then washed and incubated in 100 ul FACS buffer containing 1 μg/ml APC-conjugated anti-human IgG secondary antibody for 30 minutes in ice. Cells were washed twice in cold FACS buffer and acquired on a BD FACS Canto. Data analysis and calculation of MFI values was performed with FlowJo (TreeStar) software version 10.0.7. […]

Compared with B1, B2 is higher in “MFI fold over background” value: 1 fold for the first, 1.1 fold for the second.

B3 and B4 are the same in “MFI fold over background” value: 1 fold for the first, 1 fold for the second.

B5 and B6 are the same in “MFI fold over background” value: 1 fold for the first, 1 fold for the second.

In the case of B7, the “MFI fold over background” value is reported as 1.1 fold.

Molecular target: T2, soluble cynomolgus GPNMB (recombinant extracellular domain) (cynomolgus, UniProt Q14956 23-499 (human entry), limits assumed)
T2 chain: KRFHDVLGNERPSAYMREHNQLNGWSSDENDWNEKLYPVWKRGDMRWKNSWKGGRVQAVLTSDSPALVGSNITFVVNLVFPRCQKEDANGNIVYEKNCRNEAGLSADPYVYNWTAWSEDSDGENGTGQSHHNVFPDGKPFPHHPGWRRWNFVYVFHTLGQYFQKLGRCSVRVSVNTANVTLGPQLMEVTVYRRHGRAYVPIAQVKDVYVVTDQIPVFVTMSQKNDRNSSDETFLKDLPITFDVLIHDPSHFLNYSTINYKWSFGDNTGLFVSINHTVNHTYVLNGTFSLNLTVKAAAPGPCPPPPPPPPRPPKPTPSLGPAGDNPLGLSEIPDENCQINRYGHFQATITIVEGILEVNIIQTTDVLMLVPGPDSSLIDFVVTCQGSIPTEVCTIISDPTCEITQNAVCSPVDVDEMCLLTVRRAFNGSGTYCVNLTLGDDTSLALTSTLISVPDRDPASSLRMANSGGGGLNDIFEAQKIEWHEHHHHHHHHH
Experiment: SPR Carterra, Ab immobilized
Method in brief: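 Antibodies amine-coupled on HC200M chip in a 96-spot array; recombinant GPNMB ECD analytes injected at 2.5–600 nM, lowest to highest, without regeneration. Running buffer HBS-EP+ with 0.5 mg/ml BSA; two buffer blanks between species series. Kinetics fitted to yield affinity estimates.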

B1 and B2 are within 1.5-fold of each other in Kd: 32.8 nM for the first, 38.7 nM for the second.

Going from B3 to B4, the Kd falls from 97.9 nM to 5.1 nM (19-fold). The second binds more tightly here.

B5 and B6 are within 1.5-fold of each other in Kd: 11.3 nM for the first, 8.4 nM for the second.

B7 was tested, and the Kd was 0.4 nM.

B1 and B2 are within 1.5-fold of each other in koff: 0.0015 s⁻¹ for the first, 0.0021 s⁻¹ for the second.

Going from B3 to B4, the koff falls from 0.0021 s⁻¹ to 0.00013 s⁻¹ (16-fold).

Going from B5 to B6, the koff falls from 0.00025 s⁻¹ to 0.00012 s⁻¹ (2.1-fold).

B7 gave a koff of 0.00011 s⁻¹.

B1 and B2 are within 1.5-fold of each other in kon: 48000 M⁻¹ s⁻¹ for the first, 54000 M⁻¹ s⁻¹ for the second.

B3 and B4 are within 1.5-fold of each other in kon: 21000 M⁻¹ s⁻¹ for the first, 26000 M⁻¹ s⁻¹ for the second.

Compared with B5, B6 is 1.6-fold lower in kon: 22000 M⁻¹ s⁻¹ for the first, 14000 M⁻¹ s⁻¹ for the second.

In the case of B7, the kon is reported as 250000 M⁻¹ s⁻¹.

molecular target: T1, mouse GPNMB endogenously expressed on …; experiment: FACS on B16F10 mouse melanoma cells (endogenous mouse GPNMB); single antibody concentration (not given); APC anti-human IgG secondary; MFI as fold over background
Description: as §1

B1: no binding.
B2: no binding.
B3: no binding.
B4: no binding.
B5: no binding.
B6: no binding.
B7: no binding.
